This assay addresses Flag-epitope tagged CncC (Drosophila melanogaster) (UniProt P20482).

These results are taken from PMC4883770.

Sequence of Fs(1)h-L, the long isoform of Fs(1)h (female sterile (1) homeotic), P13709 1-2038 (natural protein; acetylated lysines (shown with a generic anti-acetyl lysine antibody; residues not named)) (P13709 whole entry, canonical isoform): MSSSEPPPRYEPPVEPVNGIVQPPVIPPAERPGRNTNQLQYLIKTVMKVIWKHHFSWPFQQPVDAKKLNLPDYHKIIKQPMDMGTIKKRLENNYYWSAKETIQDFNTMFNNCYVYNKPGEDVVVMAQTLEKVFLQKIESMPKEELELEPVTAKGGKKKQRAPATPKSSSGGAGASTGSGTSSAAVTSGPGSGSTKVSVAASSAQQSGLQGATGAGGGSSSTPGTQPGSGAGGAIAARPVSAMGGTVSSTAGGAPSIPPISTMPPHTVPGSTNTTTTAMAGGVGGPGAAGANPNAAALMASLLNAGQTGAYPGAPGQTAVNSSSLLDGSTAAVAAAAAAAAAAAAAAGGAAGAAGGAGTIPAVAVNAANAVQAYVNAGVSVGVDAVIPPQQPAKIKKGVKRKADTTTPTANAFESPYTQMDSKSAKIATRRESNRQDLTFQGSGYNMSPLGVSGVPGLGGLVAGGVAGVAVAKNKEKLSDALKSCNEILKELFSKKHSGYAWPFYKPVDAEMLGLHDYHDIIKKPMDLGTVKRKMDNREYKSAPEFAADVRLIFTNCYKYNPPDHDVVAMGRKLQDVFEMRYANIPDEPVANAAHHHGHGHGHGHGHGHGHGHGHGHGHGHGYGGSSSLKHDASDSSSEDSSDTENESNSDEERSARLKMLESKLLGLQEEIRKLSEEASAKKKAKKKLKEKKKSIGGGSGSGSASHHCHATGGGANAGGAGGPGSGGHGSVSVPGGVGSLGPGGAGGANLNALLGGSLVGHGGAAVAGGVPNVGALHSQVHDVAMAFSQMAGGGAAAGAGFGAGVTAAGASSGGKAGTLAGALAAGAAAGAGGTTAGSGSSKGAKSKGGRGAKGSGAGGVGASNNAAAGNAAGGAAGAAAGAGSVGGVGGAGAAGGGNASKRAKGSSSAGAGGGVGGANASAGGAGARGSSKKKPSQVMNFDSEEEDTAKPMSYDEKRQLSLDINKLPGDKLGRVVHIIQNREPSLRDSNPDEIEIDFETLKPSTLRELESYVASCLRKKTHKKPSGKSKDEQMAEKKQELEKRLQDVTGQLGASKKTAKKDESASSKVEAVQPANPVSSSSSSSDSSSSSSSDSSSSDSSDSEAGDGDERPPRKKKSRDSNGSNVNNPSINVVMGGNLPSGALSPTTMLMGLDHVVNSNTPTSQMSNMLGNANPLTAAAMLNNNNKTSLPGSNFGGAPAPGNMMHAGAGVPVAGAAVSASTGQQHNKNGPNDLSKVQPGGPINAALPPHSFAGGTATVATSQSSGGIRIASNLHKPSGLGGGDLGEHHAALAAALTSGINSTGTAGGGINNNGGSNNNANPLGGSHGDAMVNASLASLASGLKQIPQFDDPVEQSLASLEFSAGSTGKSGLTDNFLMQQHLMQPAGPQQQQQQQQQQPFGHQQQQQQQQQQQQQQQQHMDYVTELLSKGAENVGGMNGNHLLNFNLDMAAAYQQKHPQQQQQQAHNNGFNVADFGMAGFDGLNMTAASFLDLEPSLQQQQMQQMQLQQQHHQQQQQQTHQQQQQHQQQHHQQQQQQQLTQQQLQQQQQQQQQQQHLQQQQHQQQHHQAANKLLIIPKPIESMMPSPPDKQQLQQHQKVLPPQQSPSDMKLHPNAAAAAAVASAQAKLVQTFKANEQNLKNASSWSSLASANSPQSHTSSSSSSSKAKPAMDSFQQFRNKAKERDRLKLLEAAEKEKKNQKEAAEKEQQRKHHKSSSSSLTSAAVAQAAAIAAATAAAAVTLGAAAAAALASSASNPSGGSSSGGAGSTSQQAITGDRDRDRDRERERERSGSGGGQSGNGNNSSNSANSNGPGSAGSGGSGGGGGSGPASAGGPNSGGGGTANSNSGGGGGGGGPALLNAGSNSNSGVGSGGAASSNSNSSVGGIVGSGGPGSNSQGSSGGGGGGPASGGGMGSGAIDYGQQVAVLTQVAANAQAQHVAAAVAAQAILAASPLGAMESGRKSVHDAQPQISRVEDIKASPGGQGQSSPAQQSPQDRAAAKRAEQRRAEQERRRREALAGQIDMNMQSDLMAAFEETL
Sequence of Flag-epitope tagged CncC (Drosophila melanogaster) (P20482 whole entry): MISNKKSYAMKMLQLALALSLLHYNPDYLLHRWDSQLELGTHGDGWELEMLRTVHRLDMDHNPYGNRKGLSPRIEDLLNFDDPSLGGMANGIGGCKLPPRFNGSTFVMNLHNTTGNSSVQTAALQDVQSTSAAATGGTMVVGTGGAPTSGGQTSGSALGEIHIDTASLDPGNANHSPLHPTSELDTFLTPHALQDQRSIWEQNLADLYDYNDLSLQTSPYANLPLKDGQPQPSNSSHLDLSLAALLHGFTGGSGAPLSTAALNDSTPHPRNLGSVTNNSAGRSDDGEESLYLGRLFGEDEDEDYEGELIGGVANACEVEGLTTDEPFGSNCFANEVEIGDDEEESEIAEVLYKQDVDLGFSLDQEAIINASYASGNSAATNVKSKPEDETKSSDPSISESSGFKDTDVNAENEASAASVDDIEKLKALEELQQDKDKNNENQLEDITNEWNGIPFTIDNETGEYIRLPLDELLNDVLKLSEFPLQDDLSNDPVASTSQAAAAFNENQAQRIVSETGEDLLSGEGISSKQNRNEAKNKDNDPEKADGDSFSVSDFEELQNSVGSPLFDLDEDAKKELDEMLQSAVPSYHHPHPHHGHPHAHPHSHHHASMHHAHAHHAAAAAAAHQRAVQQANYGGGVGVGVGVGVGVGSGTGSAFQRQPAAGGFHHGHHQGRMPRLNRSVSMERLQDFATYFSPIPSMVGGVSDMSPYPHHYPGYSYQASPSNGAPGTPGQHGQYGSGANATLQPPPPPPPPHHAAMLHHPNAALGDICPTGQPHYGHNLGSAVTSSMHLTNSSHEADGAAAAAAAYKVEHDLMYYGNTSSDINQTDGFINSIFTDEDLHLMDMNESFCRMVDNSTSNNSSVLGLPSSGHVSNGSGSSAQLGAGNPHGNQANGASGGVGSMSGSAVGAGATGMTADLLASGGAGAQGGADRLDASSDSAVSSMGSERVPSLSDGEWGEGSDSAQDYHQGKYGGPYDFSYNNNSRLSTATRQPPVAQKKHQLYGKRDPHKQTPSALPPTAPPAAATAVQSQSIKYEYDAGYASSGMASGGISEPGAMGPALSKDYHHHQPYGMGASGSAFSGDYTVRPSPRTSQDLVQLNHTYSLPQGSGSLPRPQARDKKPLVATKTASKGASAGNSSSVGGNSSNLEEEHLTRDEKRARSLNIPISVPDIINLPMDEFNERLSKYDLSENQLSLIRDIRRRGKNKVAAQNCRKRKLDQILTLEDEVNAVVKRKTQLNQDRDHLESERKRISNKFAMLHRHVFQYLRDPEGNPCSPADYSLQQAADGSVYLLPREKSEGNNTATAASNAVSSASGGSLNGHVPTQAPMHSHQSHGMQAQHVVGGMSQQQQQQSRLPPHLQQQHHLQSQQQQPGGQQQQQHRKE

As to “Fs(1)h-L, the long isoform of Fs(1)h (female sterile (1) homeotic), P13709 1-2038 (natural protein; acetylated lysines (shown with a generic anti-acetyl lysine antibody; residues not named))”, the ARE-fluc reporter activity in S2 cells treated with 1μM JQ1 for 24 hrs, fold change relative to controls was 6.5 fold.
